Data reported in IntAct's records for PubMed 18093972.

B1: Homeodomain-interacting protein kinase 2 (Mus musculus), Q9QZR5 (parent)
chain: MAPVYEGMASHVQVFSPHTLQSSAFCSVKKLKVEPSSNWDMTGYGSHSKVYSQSKNIPPSQPASTTVSTSLPIPNPSLPYEQTIIFPGSTGHIVVTSASSTSVTGQVLGGPHNLMRRSTVSLLDTYQKCGLKRKSEEIENTSSVQIIEEHPPMIQNNASGATVATATTSTATSKNSGSNSEGDYQLVQHEVLCSMTNTYEVLEFLGRGTFGQVVKCWKRGTNEIVAIKILKNHPSYARQGQIEVSILARLSTESADDYNFVRAYECFQHKNHTCLVFEMLEQNLYDFLKQNKFSPLPLKYIRPVLQQVATALMKLKSLGLIHADLKPENIMLVDPSRQPYRVKVIDFGSASHVSKAVCSTYLQSRYYRAPEIILGLPFCEAIDMWSLGCVIAELFLGWPLYPGASEYDQIRYISQTQGLPAEYLLSAGTKTTRFFNRDTDSPYPLWRLKTPDDHEAETGIKSKEARKYIFNCLDDMAQVNMTTDLEGSDMLVEKADRREFIDLLKKMLTIDADKRVTPIETLNHPFVTMTHLLDFPHSAHVKSCFQNMEICKRRVNMYDTVNQSKTPFITHVAPSTSTNLTMTFNNQLTTVHNQAPTTSSATLSLANPEVSILNYQSALYQPSAASMAAVAPRSMPLQTGTAQICARPDPFQQALIVCPPGFQGLQASPSKHAGYSVRMENAVPIVTQAPGAQPLQIQPGLLAQQAWPGGAQQILLPPAWQQLTGVATHTSVQHAAVIPETMAGTQQLADWRNTHAHGSHYNPIMQQPALLTGHVTLPAAQPLNVGVAHVMRQQPTSTTSSRKSKQHQSSVRNVSTCEVTSSQAISSPQRSKRVKENTPPRCAMVHSSPACSTSVTCGWGDVASSTTRERQRQTIVIPDTPSPTVSVITISSDTDEEEEQKHAPTSTVSKQRKNVISCVTVHDSPYSDSSSNTSPYSVQQRTGHNGTNTLDTKGGLENHCTGNPRTIIVPPLKTQASEVLVECDSLGPAISASHHSSSFKSKSSSTVTSTSGHSSGSSSGAIAYRQQRPGPHFQQQQPLNLSQAQQHMAADRTGSHRRQQAYITPTMAQAPYTFPHNSPSHGTVHPHLAAAAHLPTQPHLYTYTAPTALGSTGTVAHLVASQGSARHTVQHTAYPASIVHQVPVSMGPRVLPSPTIHPSQYPAQFAHQTYISASPASTVYTGYPLSPAKVNQYPYI
partner: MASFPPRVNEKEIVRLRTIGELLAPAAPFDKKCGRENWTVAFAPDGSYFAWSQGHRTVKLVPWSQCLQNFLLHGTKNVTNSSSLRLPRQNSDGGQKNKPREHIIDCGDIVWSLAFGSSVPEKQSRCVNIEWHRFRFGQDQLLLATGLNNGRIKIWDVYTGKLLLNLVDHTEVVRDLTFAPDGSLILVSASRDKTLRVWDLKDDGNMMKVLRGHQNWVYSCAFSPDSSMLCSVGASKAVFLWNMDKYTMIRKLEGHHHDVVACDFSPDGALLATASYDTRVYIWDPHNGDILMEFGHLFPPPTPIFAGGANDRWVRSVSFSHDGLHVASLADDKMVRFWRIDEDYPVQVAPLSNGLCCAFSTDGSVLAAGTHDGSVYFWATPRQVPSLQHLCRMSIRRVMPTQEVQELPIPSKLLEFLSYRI

Variants of: B1
Details: with wsb1_human WSB1, Q9Y6I7

Variant	effect of a mutation on the interaction
K228R	increasing interaction
